pKd: −log10 of the molar value.
Experiments:
[1] = biological target: Full length UFC1, residues 1–167 (UniProt Q9Y3C8); assay: ITC; VP-ITC, 25 °C; UBA5 peptides (~400 µM) titrated into 20–25 µM binding partner; 25 mM HEPES pH 7.5, 100 mM NaCl; one-site model; a single profile for each interaction
[2] = biological target: Full length UBA5 (res. 1–404) C250K mutant stably conjugated to UFM1 (UniProt Q9GZZ9); assay: ITC; UFC1 titrated to FL^1–404 and to FL^1–404 C250K~UFM1; 25 °C; 25 mM HEPES pH 7.5, 100 mM NaCl; one-site model
Sequence of Full length UBA5 (res. 1–404) C250K mutant stably conjugated to UFM1 (Q9GZZ9 whole entry C250K, chain 1 of 2, the tested form may be a part): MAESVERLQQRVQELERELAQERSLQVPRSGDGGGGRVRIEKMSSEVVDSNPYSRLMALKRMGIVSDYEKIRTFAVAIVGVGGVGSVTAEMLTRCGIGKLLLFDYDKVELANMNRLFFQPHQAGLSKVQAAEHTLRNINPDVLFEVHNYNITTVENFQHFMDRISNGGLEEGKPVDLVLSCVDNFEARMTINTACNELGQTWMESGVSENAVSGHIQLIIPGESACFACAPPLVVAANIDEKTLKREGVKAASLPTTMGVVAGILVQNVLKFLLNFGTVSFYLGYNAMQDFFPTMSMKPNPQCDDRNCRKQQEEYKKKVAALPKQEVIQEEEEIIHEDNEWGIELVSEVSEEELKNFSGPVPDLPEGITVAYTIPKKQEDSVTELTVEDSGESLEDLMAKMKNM
Sequence of Full length UBA5 (res. 1–404) C250K mutant stably conjugated to UFM1 (P61960 other isoform, or with tags, fused parts or gaps C250K, chain 2 of 2, further chain): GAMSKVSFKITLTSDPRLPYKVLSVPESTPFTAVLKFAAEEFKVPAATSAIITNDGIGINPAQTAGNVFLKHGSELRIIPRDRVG

[3] = biological target: Full length UBA5, residues 1–404 (human) (UniProt Q9GZZ9); assay: as above

Sequence of UBA5 C-terminal regions R2 and R3, residues 359–404 (Q9GZZ9 other isoform, or with tags, fused parts or gaps): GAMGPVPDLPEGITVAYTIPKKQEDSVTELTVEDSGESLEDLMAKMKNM
Sequence of UBA5 C-terminal region R2, residues 359–376 (Q9GZZ9 other isoform, or with tags, fused parts or gaps): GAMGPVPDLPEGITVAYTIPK

Substance	Ka [1] [M⁻¹]	pKd [1]	dH [1] [kcal/mol]	stoichiometry N [1]	also measured
UBA5 C-terminal part, residues 325–404 (from UniProt Q9GZZ9 325-404) (domain or fragment)	410000	5.62	-7.04	1.03	–
UBA5 C-terminal regions R2 and R3, residues 359–404 (from UniProt Q9GZZ9 359-404) (peptide)	370000	5.57	-8.08	0.97	–
UBA5 C-terminal part with A371T mutant (res. 325–404) (from UniProt Q9GZZ9 325-404) (domain or fragment)	540000	5.74	-7.88	1.03	–
UBA5 C-terminal region R2, residues 359–376 (from UniProt Q9GZZ9 359-376) (peptide)	–	< 4.30	–	–	–
UBA5 C-terminal part with A371E mutant (res. 325–404) (from UniProt Q9GZZ9 325-404) (domain or fragment)	600000	5.80	-7.78	1.03	–
Full length UFC1, residues 1–167 (from UniProt Q9Y3C8 1-167) (enzyme)	–	–	–	–	Ka [2]: 870000 M⁻¹; pKd [2]: 5.92; dH [2]: -8.21 kcal/mol; stoichiometry N [2]: 1.03; Ka [3]: 720000 M⁻¹; pKd [3]: 5.85; dH [3]: -7.62 kcal/mol; stoichiometry N [3]: 0.97

From PMC8304084, “A Concerted Action of UBA5 C-Terminal Unstructured Regions Is Important for Transfer of Activated UFM1 to UFC1” (International Journal of Molecular Sciences, 2021)
